Target: ROCK2 (Homo sapiens, UniProt O75116)
Experiment: competition fluorescence polarization

Chain of ROCK2 (O75116 whole entry): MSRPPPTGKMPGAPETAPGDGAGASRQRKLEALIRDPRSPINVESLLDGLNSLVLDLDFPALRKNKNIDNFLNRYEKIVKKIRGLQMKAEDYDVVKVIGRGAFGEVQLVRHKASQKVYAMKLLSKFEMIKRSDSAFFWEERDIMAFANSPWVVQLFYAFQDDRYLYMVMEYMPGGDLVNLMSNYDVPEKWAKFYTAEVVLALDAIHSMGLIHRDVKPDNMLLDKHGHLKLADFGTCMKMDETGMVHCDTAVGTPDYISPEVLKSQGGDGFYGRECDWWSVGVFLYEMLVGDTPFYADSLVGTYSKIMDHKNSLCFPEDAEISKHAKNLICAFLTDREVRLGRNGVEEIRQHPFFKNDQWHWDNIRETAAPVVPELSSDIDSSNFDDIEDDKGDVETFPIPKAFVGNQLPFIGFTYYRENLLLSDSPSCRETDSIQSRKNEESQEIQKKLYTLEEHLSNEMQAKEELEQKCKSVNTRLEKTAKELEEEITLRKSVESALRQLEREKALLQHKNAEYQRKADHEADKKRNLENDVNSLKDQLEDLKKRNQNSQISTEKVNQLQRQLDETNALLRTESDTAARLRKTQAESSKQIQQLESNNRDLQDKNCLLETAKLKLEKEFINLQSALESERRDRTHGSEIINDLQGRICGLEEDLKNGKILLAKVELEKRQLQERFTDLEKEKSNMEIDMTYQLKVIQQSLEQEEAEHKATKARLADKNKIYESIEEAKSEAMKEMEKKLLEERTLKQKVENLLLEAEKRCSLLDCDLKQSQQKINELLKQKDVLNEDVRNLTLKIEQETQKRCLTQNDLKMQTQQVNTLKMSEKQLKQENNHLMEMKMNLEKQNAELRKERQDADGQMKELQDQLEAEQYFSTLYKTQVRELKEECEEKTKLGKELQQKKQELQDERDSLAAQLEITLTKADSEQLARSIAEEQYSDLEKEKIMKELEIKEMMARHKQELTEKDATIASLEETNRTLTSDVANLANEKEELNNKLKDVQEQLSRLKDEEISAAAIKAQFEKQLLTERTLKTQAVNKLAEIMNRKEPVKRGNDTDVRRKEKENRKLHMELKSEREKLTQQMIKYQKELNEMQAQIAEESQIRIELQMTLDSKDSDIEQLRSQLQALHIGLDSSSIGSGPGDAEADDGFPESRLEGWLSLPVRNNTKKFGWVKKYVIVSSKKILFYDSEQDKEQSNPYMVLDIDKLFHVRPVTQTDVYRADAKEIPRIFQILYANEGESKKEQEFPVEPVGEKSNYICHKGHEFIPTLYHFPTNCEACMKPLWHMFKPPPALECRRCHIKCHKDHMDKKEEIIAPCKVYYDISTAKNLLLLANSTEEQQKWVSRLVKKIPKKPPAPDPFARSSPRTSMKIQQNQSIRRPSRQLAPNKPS

Binder: ADRGLTTRPGSGLTNIKTEEISEVKMDAEFRHDSGYEVHHQKLVFFAEDV (BACE1 C-terminal peptide present) [APP 646-695]
- Kd: 3.5 nM
